One molecule from article PMC4353693 can be followed below.

What is called Kd is a measure of binding affinity in units of concentration. A higher Kd goes with a looser complex.

Experiment [1] has as its target actin binding domain of plectin isoform 1a (P1aABD). In words: ITC.
Experiment [2] shares this target. In words: SAXS.

B1: first two FnIII domains of integrin β4 (β4Fn12; 1126–1355) (domain or fragment)
chain: DLGAPQNPNAKAAGSRKIHFNWLPPSGKPMGYRVKYWIQGDSESEAHLLDSKVPSVELTNLYPYCDYEMKVCAYGAQGEGPYSSLVSCRTHQEVPSEPGRLAFNVVSSTVTQLSWAEPAETNGEITAYEVCYGLVNDDNRPIGPMKKVLVDNPKNRMLLIENLRESQPYRYTVKARNGAGWGPEREAIINLATQPKRPMSIPIIPDIPIVDAQSGEDYDSFLMYSDDVLR
Consider B1, for which, in experiment [1], the Kd was 41.7 µM and the dH stood at 3.69 kcal/mol. In experiment [2], the volume fraction of the complex in solution (SAXS, OLIGOMER) was found to be 54%.
